{
  "source": "paper PMC3535077",
  "target": "His6-tagged monovalent streptavidin (UniProt P22629)",
  "assay": "pull-down",
  "data": [
    {"substance": "C-terminal AviTag Dicer, biotinylated (from UniProt Q9UPY3 1-1922) (enzyme)", "values": [
      {"measurement": "percent of the Dicer sample retained on the Ni column with His6-streptavidin", "result": 60, "unit": "%"}
    ]}
  ]
}
